Biological target: His-AvrXa27 (Xanthomonas oryzae pv. oryzae, UniProt Q4QS99 1-1136)
Test: EMSA; […]; buffer, […], pH and temperature not stated
Conditions: protein: recombinant; tags: His (pET-30a); label: Cy5; blunt

B1: Xa13p-14 (dsDNA)
DNA 1: ATCTCCCCCTACTCTACAT
DNA 2: ATGTAGAGTAGGGGGAGAT
binding result: no binding

— PMC10873877
